The target in the assay is T1, full-length GST-SUUR (Drosophila, UniProt Q9VTE2 1-962).
T1 sequence (looked up): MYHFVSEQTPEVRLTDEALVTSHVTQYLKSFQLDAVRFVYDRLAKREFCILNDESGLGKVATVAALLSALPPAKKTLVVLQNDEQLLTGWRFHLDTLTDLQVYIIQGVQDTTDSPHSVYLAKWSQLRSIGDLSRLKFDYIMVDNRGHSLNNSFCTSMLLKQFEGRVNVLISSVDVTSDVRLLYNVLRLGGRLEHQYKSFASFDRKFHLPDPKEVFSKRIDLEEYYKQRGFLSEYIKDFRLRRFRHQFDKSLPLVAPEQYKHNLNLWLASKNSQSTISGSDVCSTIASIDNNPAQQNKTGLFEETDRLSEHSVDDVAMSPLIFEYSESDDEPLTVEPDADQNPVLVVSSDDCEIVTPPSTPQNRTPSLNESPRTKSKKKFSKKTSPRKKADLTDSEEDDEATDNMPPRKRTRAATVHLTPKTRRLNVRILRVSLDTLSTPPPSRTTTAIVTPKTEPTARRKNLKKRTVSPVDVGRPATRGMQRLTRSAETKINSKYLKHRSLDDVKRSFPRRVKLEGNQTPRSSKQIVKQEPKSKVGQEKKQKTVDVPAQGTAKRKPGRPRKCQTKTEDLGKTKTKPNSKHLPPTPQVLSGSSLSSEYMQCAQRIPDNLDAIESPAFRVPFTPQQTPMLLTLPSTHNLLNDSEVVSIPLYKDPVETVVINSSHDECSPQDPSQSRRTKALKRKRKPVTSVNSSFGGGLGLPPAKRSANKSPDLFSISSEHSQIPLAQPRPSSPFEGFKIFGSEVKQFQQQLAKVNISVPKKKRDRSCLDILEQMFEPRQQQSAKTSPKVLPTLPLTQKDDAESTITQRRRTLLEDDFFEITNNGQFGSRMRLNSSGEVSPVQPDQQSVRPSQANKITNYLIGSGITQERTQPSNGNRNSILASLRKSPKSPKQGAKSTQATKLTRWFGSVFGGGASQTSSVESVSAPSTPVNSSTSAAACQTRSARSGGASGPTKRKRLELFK
Briefly: pull-down.

B1: recombinant untagged full-length H1 (natural protein, Drosophila, UniProt P02255 1-256, looked up)
chain: MSDSAVATSASPVAAPPATVEKKVVQKKASGSAGTKAKKASATPSHPPTQQMVDASIKNLKERGGSSLLAIKKYITATYKCDAQKLAPFIKKYLKSAVVNGKLIQTKGKGASGSFKLSASAKKEKDPKAKSKVLSAEKKVQSKKVASKKIGVSSKKTAVGAADKKPKAKKAVATKKTAENKKTEKAKAKDAKKTGIIKSKPAATKAKVTAAKPKAVVAKASKAKPAVSAKPKKTVKKASVSATAKKPKAKTTAAKK
With B1, the binding result is on record as “binds”.
